Results on four molecules are retold here after PMC6980676 (Molecular cell, 2019).

The target of series [1] is T1, Vts1-SNAP (full length) (UniProt Q08831 1-523).
T1 sequence: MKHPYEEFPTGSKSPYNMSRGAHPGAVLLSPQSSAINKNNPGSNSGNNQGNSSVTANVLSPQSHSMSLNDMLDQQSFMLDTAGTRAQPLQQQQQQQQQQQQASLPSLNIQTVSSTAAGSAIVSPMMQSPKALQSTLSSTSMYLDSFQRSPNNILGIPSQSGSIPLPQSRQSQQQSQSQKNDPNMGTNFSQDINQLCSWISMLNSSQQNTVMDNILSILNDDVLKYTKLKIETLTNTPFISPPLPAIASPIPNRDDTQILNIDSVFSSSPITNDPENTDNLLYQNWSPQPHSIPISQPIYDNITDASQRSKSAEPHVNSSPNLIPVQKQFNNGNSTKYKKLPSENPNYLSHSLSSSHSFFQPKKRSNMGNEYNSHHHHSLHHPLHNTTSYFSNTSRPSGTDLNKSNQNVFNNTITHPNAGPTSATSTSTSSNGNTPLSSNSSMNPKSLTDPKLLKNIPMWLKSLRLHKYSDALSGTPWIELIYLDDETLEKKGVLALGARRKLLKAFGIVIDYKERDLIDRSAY
Put plainly: fluorescence microscopy co-localization.

The series “SEC” deals with the molecule itself. Put plainly: SEC. A general note: Size exclusion chromatography separates by hydrodynamic size, large species first.
The series “native gel or EMSA” deals with the molecule itself. Put plainly: native gel or EMSA.
Series [2] deals with T1, Vts1-SNAP (full length). In words: fluorescence microscopy co-localization. The source holds these as a separate data set.

B1: SRE+ RNA (structured_RNA)
RNA: UAAUAAUCAGCUGGCCUGAUUAGUC
On to B1, for which, in the series with Vts1-SNAP (full length) [1], the binding result is reported as “binds”.

B2: full-length Vts1 with a C-terminal SNAP tag (natural protein, S. cerevisiae, UniProt Q08831 1-523, looked up)
chain: T1 sequence
As for B2, the “stoichiometry N” value in “SEC” is 6.

B3: SNAP^549 labeled full-length Vts1 (natural protein, S. cerevisiae, UniProt Q08831 1-523, looked up)
chain: T1 sequence
modifications: SNAP-Surface 549 dye on the SNAP tag
Take B3: the binding result in the series “native gel or EMSA” was “binds”.

B4: SRE- RNA (permuted SRE) (structured_RNA)
RNA: UAAUAAUCAGGUCGCCUGAUUAGUC
On to B4, for which the binding signal with Vts1-SNAP (full length) [2] is > 5 fold lower co-localized signal than SRE+.

As a reminder, the stoichiometry N is a count of units in the complex or per binding partner.
